Results published in patent US20210206850A1 (ACCURUS BIOSCIENCES, published 2021).
Several values for one entry are separate records, joined by “and”; a condition that tells them apart may be missing. Equal entries are not always repeated. Each block holds one binder with its values, some of them ahead of it.

Legend:
[1] = target: T1, human CD47ECD His tagged protein (human, UniProt Q08722 19-139, limits assumed); assay: ELISA ligand blocking, plate coated with human CD47 ECD His tagged protein at 1 ug/ml; blocked ligand human SIRPaECD huFc at 1 ug/ml, anti-human IgG-HRP
T1 construct: extracellular domain; also called HuCD47ECD 8xHis; monovalent CD47ECD His tagged protein
Procedure: (§1) To evaluate the blocking ability of anti-human CD47 mouse mAb on recombinant human CD47 binding to its ligand SIRPα, an ELISA based ligand blocking assay was employed. Briefly, microtiter plates were coated with human CD47ECD His tagged protein at 1 μg/ml in PBS, 100 μl well at 4° C. overnight, then blocked with 100 μl/well of 2% BSA. […] The plates were washed with PBS/Tween and then incubated with anti-human IgG-HRP for 1 hour at 37° C. After washing, the plates were developed with TMB substrate and analyzed by spectrophotometer at OD 450 nm.

[2] = target: T2, His tagged mouse CD47 protein (mouse, UniProt Q61735 19-140, limits assumed); assay: ELISA, plate coated with His tagged mouse CD47 at 2 ug/ml, goat anti-mouse IgG-HRP, OD450
T2 construct: Bought protein
T2 sequence (looked up): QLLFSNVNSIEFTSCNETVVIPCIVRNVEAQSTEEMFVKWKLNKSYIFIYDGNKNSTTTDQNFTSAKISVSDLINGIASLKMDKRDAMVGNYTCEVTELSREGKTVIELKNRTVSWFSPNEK
Procedure: To evaluate the binding cross-reactivity of anti-human CD47 antibodies to cynomolgus and mouse CD47, an ELISA based binding assay was used. Briefly, microtiter plates were coated with His tagged cynomolgus monkey CD47 or His tagged mouse CD47 protein (purchase from Acro Biosystem). Both proteins were coated at 2 μg/ml in PBS, 100 μl/well at 4° C. overnight. The plates were then blocked with 100 μl/well of 2% BSA. Ten-fold dilutions of mouse anti-human CD47 hybridoma antibodies were added to each well starting at 70 ug/ml and incubated for 1-2 hours at RT. The plates were washed with PBS/Tween and then incubate with goat-anti-mouse IgG antibody conjugated with Horse Radish Peroxidase (HRP) for 1 hour at RT. After washing, the plates were developed with TMB substrate and analyzed by spectrophotometer at OD 450 nm.

[3] = target: T1, human CD47ECD His tagged protein; assay: ELISA competition; plate-bound human CD47ECD His, competitor ligand SIRPα huFc 1 ug/ml
Procedure: as §1

[4] = target: T3, human CD47ECD mouse Fc protein (human, UniProt Q08722 19-139, limits assumed); assay: SPR (Biacore 3000); antibody captured on anti-human Fc chip, bivalent HuCD47ECD muFc injected; column Affinity (nM)
T3 construct: extracellular domain; also called HuCD47ECD muFc; bivalent CD47ECD muFc protein; not shown: mouse Fc
Procedure: (§2) The binding affinities of anti-human CD47 mouse/human chimeric antibodies to human CD47 protein were determined with BIACORE™ using a capture method. The anti-human CD47 mouse/human chimeric antibodies were captured using anti-human Fc antibody coated on a CMS chip. Serial dilutions of human CD47ECD mouse Fc protein starting from 400 nM were injected over captured antibody for 1 mins at a flow rate of […]. Alternatively, serial dilutions of human CD47ECD His tagged protein starting from 800 nM were injected over captured antibody for 1 min at a flow rate of […]. The antigens were allowed to dissociate for 900s. All the experiments were carried out on a Biacore 3000. Data analysis was carried out using Biacore 3000 evaluation software.

[5] = target: T1, human CD47ECD His tagged protein; assay: SPR (Biacore 3000); antibody captured on anti-human Fc chip, monovalent HuCD47ECD 8xHis injected
Procedure: as §2

[6] = target: human CD47 (full length) expressed on cells (human) (UniProt Q08722); assay: FACS ligand blocking on CD47-CHO cells; blocked ligand FITC human SIRPa huFc at 4 ug/ml
[7] = target: T1, human CD47ECD His tagged protein; assay: SPR (Biacore 3000); antibody captured on anti-human Fc chip, monovalent HuCD47ECD 8xHis injected; column Affinity (nM)
Procedure: as §2

[8] = target: T3, human CD47ECD mouse Fc protein; assay: SPR (Biacore 3000); antibody captured on anti-human Fc chip, bivalent HuCD47ECD muFc injected
Procedure: as §2

[9] = target: T4, human CD47ECD human Fc protein (human, UniProt Q08722 19-139, limits assumed); assay: ELISA, plate coated with human CD47ECD huFc at 1 ug/ml, goat anti-mouse IgG-HRP, OD450
T4 construct: extracellular domain; also called human CD47ECD huFc; human CD47huFc; not shown: human Fc
Text: After washing, the plates were developed with TMB substrate and analyzed by spectrophotometer at OD 450 nm.

T1 sequence (Q08722 19-139 limits assumed): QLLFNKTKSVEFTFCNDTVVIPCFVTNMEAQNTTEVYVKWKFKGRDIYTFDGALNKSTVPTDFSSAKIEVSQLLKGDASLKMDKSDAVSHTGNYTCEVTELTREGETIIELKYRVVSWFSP
T3 sequence (Q08722 19-139 limits assumed): as above
human CD47 (full length) expressed on cells (human), sequence (Q08722 19-323): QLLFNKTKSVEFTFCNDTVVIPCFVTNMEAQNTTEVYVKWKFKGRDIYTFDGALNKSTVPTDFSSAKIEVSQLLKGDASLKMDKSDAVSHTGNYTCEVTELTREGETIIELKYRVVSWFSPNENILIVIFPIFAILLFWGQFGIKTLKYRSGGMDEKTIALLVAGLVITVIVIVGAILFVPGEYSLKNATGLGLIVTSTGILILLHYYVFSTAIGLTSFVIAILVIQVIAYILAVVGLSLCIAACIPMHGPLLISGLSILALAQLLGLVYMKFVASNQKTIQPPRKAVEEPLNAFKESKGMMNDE
T4 sequence (Q08722 19-139 limits assumed): as the sequence (Q08722 19-139 limits assumed) above

B2: D96S1 mouse anti-human CD47 hybridoma antibody (antibody, V domains shown)
VH: EVQLQQSGAELVKPGASVKLSCTASGFNIKDTYIHWVKQRPEQGLEWIGRIDPANGNIKSDPKFQGKATVTADTSSNTAYLQLSSLTSEDTAVYYCARSYGSSFASWGQGTLVTVSP
VL: DIQMTQTTSSLSASLGDRVTISCRASQDISNHLNWYQQKPDGAVKLLIYYTSRLHSGVPSRFSGSGSGTDYSLTISNLEQEDIATYFCQQGSTFPYTFGGGTKLEIK
notes: Mouse hybridoma IgG
- IC50 [1]: 1.94 µg/mL and 12.9 nM
- binding result [2]: no binding (tested: 70 ug/ml)

B5: D36S4 mouse anti-human CD47 hybridoma antibody (antibody, V domains shown)
VH: EVKLEESGGGLVQPGGSMKLSCVASGFTFSRYWMNWVRQSPDKGLEWVAQIRLKSDNYETHYAESVKGRFTISRDDSKSSVYLQMNNLRAEDTGIYYCIEEGGYYVPFAYWGQGTLVTVSA
VL: DIVVSQSPSSLAVSAGEKVTMSCKSSQSLFKSRTRKNYLAWYQQRPGQSPKLLIYWASIRESGVPDRFTGSGSGTEFTLTISSVQAEDLAVYYCKQSYYLLTFGAGTKLELK
notes: Mouse hybridoma IgG
- IC50 [1]: 0.09 µg/mL
- binding result [2]: binds
- IC50 [3]: 0.59 nM
- EC50 (read off the curve) [9]: ~0.02 µg/mL

Continued, values first:

- IC50 [1]: 0.25 µg/mL and 1.69 nM
- binding result [2]: no binding (tested: 70 ug/ml)
B1: D125S3 (antibody, V domains shown)
VH: EVQLVESGGDLVKPGGSLNLSCAASGFTFSDYGMSWVRQTPDMRLEWVATISKYGTYTSYPDSVKGRFTISRSNAKNTLYLQMSSLKSADTALYYCARRFFGNYNYWYFDVWGAGTTVTVSS
VL: DIVLTQSPASLAVSLGQRATFSCRASESVDEFGISYIHWYKKSPGQPPKLLIYRASTLESGISARFSGSGSGTDFTLTINPVETDDVATYYCQQSNQDPLTFGAGTKLELK
notes: Mouse hybridoma form; the mouse/human chimeric form with the same V regions is m18; also called D125S3 mouse anti-human CD47 hybridoma antibody

- IC50 [1]: 0.15 µg/mL and 1.02 nM
- IC50 [3]: 1 nM
B3: D28S1 mouse anti-human CD47 hybridoma antibody (antibody, V domains shown)
VH: EVQLVESGGDLVKPGGSLKLSCAASGFTFTSYGMSWVRQTPDKRLEWVATINTGGSYTYYPDSVKGRFTISRDNAKNTLYLQMSSLKSEDTAMYYCARHTIKSLMDYWGQGTSVTVSS
VL: ETTVTQSPASLSMAIGEKVTIRCITSTDIDDDMNWYQQKPGEPPKLLISEGNTLRPGVPSRFSSSGYGTDFVFIIENMFSEDVADYYCLQSDNLPYTFGSGTKLEIK
notes: Mouse hybridoma IgG

- Kd [4]: 0.0479 nM
- Kd [5]: 0.798 nM
- koff [5]: 0.000703 s⁻¹
- kon [5]: 881000 M⁻¹ s⁻¹
- IC50 [6]: 8.6 µg/mL
- Kd [7]: 0.798 nM
- Kd [8]: 0.0479 nM
- koff [8]: 2.25e-05 s⁻¹
- kon [8]: 469000 M⁻¹ s⁻¹
B4: AB6.12, a humanized version of anti-CD47 antibody 2A1 from Celgene (antibody, from another filing, V domains shown)
VH: QMQLVQSGAEVKKTGSSVKVSCKASGFNIKDYYLHWVRQAPGQALEWMGWIDPDQGDTEYAQKFQDRVTITRDRSMSTAYMELSSLRSEDTAMYYCNAAYGSSSYPMDYWGQGTTVTVSS
VL: NIQMTQSPSAMSASVGDRVTITCKASQDIHRYLSWFQQKPGKVPKHLIYRANRLVSGVPSRFSGSGSGTEFTLTISSLQPEDFATYYCLQYDEFPYTFGGGTKVEIKR
